Patent US20260209362A1 (VIB VZW, published 2026)
Positions count from the first letter of the chain named. Blank lines part the entries; values can stand above or below the binder they belong to.

Assays:
[1] = target: T1, biotinylated recombinant mouse IL-12Rβ2 (mouse, UniProt P97378 24-637, random biotinylated); test: ELISA, periplasmic extract on biotinylated mIL-12Rβ2, signal over control wells
T1 construct: Recombinant protein produced in-house, biotinylated; also called mIL-12RB2; mouse IL-12RB2
T1 sequence: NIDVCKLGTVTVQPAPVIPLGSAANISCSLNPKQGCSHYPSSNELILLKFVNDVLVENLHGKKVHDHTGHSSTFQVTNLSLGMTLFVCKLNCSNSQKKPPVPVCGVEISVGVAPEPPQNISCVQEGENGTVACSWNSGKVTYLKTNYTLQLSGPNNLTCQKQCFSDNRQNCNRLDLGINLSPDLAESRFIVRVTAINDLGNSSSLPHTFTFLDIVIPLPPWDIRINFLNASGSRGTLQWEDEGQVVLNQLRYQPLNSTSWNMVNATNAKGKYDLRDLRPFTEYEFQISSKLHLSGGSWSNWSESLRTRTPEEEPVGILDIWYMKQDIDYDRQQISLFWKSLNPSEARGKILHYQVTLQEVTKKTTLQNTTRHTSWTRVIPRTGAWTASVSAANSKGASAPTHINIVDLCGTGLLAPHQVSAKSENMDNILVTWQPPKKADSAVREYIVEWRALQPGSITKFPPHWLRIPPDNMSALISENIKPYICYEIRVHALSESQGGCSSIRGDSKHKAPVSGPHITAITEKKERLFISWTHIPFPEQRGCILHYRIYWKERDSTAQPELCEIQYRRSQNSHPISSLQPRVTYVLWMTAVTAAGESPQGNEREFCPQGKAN

[2] = target: T2, biotinylated recombinant human IL-12Rβ2 (human, UniProt Q99665 24-622, random biotinylated); test: ELISA, periplasmic extract on biotinylated hIL-12Rβ2, signal over control wells
T2 construct: Recombinant protein produced in-house, biotinylated; also called hIL-12RB2; human IL-12RB2
T2 sequence: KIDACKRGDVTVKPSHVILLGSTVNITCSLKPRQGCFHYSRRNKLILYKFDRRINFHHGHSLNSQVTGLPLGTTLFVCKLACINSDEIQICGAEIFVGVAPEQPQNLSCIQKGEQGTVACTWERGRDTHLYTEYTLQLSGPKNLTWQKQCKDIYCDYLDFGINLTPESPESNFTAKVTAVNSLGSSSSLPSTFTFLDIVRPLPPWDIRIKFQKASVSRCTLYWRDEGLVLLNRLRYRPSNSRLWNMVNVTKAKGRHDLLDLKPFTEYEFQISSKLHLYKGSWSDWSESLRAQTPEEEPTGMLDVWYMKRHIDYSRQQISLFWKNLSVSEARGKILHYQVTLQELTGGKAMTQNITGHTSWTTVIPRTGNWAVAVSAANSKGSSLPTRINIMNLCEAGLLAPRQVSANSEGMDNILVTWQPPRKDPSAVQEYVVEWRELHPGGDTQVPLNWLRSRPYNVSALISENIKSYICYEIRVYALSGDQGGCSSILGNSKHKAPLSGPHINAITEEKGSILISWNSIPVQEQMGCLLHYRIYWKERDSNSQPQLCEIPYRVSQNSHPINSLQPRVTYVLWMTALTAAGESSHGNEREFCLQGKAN

B5: anti-IL-12Rβ2 VHH clone 20497 (VHH, not shown: small tags and cut ends)
VHH: QVQLQESGGGLVQAGDSLRLSCAASGRTFSSYGMGWFRQAPGKEREFVAAISRGARITDYADSVKGRFTISRDNAKNTAYLQMNSLNPEDTAVYFCAAAYTYSGSHYVTARSSDYHSWGQGTQVTVSS
notes: tested as periplasmic extract; also called 2CAM72
ELISA binding mIL-12RB2/control [1]: 13.4 ratio
ELISA binding hIL-12RB2/control [2]: 0.932 ratio

B6: anti-IL-12Rβ2 VHH clone 20498 (VHH, not shown: small tags and cut ends)
VHH: QVQLQESGGGLVQAGGSLRLSCASSGRTFSSRTVGWFRQAPGKERYFVAAISRDTAYTDYADSVKGRFTISRGNAKNTVYLQMNSLNPEDTAVYYCAASHIYSGSHYISARSSDYMYWGQGTQVTVSS
notes: tested as periplasmic extract; also called 2CAM73
ELISA binding mIL-12RB2/control [1]: 6.62 ratio
ELISA binding hIL-12RB2/control [2]: 0.994 ratio

B7: anti-IL-12Rβ2 VHH clone 20478 (VHH, not shown: small tags and cut ends)
VHH: QVQLQESGGGLVQAGGSLTLSCAASGMPISFNVLGWFRQIPGKERDFVAAISRDARITDYADSVKGRFTISRDNVKNTVYLQMNSLNPEDTAVYFCAAAYTYSGSHYVTARSSDYHSWGQGTQVTVSS
notes: tested as periplasmic extract; also called 2CAM30
ELISA binding mIL-12RB2/control [1]: 8.78 ratio
ELISA binding hIL-12RB2/control [2]: 1.02 ratio

B8: anti-IL-12Rβ2 VHH clone 20444 (VHH, not shown: small tags and cut ends)
VHH: QVQLQESGGGLVQAGGSLRLSCTASGSIFAIDDMYWYRQAPGKQREFVAYITATNSANYLDSVNGRFTISRDNAKNSVYLQMNSLKPEDTAVYYCNAKQIVGFQIDEYWGQGTQVTVSS
notes: tested as periplasmic extract; also called 2CRM18
ELISA binding mIL-12RB2/control [1]: 4.68 ratio
ELISA binding hIL-12RB2/control [2]: 0.985 ratio

B9: anti-IL-12Rβ2 VHH clone 20464 (VHH, not shown: small tags and cut ends)
VHH: B8 VHH with S21F
notes: tested as periplasmic extract; also called 3CRM86
ELISA binding mIL-12RB2/control [1]: 5.44 ratio
ELISA binding hIL-12RB2/control [2]: 1.29 ratio

B10: anti-IL-12Rβ2 VHH clone 20446 (VHH, not shown: small tags and cut ends)
VHH: B8 VHH with A14P, I31S
notes: tested as periplasmic extract; also called 2CRM32
ELISA binding mIL-12RB2/control [1]: 12 ratio
ELISA binding hIL-12RB2/control [2]: 1.01 ratio

B11: anti-IL-12Rβ2 VHH clone 20455 (VHH, not shown: small tags and cut ends)
VHH: B8 VHH with A14P, A97T
notes: tested as periplasmic extract; also called 3CRM6
ELISA binding mIL-12RB2/control [1]: 11.5 ratio
ELISA binding hIL-12RB2/control [2]: 1.4 ratio

B13: anti-IL-12Rβ2 VHH clone 20454 (VHH, not shown: small tags and cut ends)
VHH: B8 VHH with G16D, K75E, A91V
notes: tested as periplasmic extract; also called 2CRM93
ELISA binding mIL-12RB2/control [1]: 5.04 ratio
ELISA binding hIL-12RB2/control [2]: 0.996 ratio

B15: anti-IL-12Rβ2 VHH clone 20442 (VHH, not shown: small tags and cut ends)
VHH: B8 VHH with A14P
notes: tested as periplasmic extract; also called 2CRM12
ELISA binding mIL-12RB2/control [1]: 6.67 ratio
ELISA binding hIL-12RB2/control [2]: 0.993 ratio

B16: anti-IL-12Rβ2 VHH clone 20456 (VHH, not shown: small tags and cut ends)
VHH: B8 VHH with A14P, R19T
notes: tested as periplasmic extract; also called 3CRM14
ELISA binding mIL-12RB2/control [1]: 12.1 ratio
ELISA binding hIL-12RB2/control [2]: 1.24 ratio

B17: anti-IL-12Rβ2 VHH clone 20458 (VHH, not shown: small tags and cut ends)
VHH: B8 VHH with Q44E
notes: tested as periplasmic extract; also called 3CRM45
ELISA binding mIL-12RB2/control [1]: 28.4 ratio
ELISA binding hIL-12RB2/control [2]: 1.47 ratio

More lines, now with the values ahead:

ELISA binding mIL-12RB2/control [1]: 20.2 ratio
ELISA binding hIL-12RB2/control [2]: 1.07 ratio
B1: anti-IL-12Rβ2 VHH clone 20505 (VHH, not shown: small tags and cut ends)
VHH: B5 VHH with L11S, D16G, G54D, Q82E
notes: tested as periplasmic extract; also called 3CAM4

ELISA binding mIL-12RB2/control [1]: 10.4 ratio
ELISA binding hIL-12RB2/control [2]: 0.985 ratio
B2: anti-IL-12Rβ2 VHH clone 20499 (VHH, not shown: small tags and cut ends)
VHH: B5 VHH with D16G, G54D, R56S, Q82E
notes: tested as periplasmic extract; also called 2CAM75

ELISA binding mIL-12RB2/control [1]: 25.6 ratio
ELISA binding hIL-12RB2/control [2]: 1.2 ratio
B3: anti-IL-12Rβ2 VHH clone 20511 (VHH, not shown: small tags and cut ends)
VHH: B5 VHH with D16E, R19T, A23T, E46D, G54D, I57Y, R72K, S113G, H116N, S117Y
notes: tested as periplasmic extract; also called 3CAM36

ELISA binding mIL-12RB2/control [1]: 10 ratio
ELISA binding hIL-12RB2/control [2]: 1.31 ratio
B4: anti-IL-12Rβ2 VHH clone 20509 (VHH, not shown: small tags and cut ends)
VHH: B5 VHH with D16G, S25A, E46D, G54D, S117T, V124D
notes: tested as periplasmic extract; also called 3CAM30

ELISA binding mIL-12RB2/control [1]: 4.43 ratio
ELISA binding hIL-12RB2/control [2]: 1.01 ratio
B12: anti-IL-12Rβ2 VHH clone 20518 (VHH, not shown: small tags and cut ends)
VHH: B8 VHH with A14P, K43R
notes: tested as periplasmic extract; also called 2CRMS15

ELISA binding mIL-12RB2/control [1]: 5.47 ratio
ELISA binding hIL-12RB2/control [2]: 0.968 ratio
B14: anti-IL-12Rβ2 VHH clone 20517 (VHH, not shown: small tags and cut ends)
VHH: B8 VHH with V12A, A14P
notes: tested as periplasmic extract; also called 2CRMS10
